# Laboratory results reported in patent US10941182 (Amgen, dated 2021).
# Starred links: 1 amine or outer side, 2 acyl side, 3 side chain; linkers in the order of their positions; H or OH if unused. Non-standard residues stand in square brackets, D forms with d. *: point of attachment. Bh4ClF = β-4-chloro-L-homophenylalanine, O=C(C[C@H](Cc1ccc(Cl)cc1)N[*:1])[*:2]; AC4Abu = α-carboxy-4-aminobutyric acid, O=C(C(CCN[*:1])C(=O)[*:3])[*:2]; Oic = O=C(O)[C@@H]1C[C@@H]2CCCC[C@@H]2N1; Phe(4-Cl) = N[C@@H](Cc1ccc(Cl)cc1)C(=O)O; dPhe(4-I) = N[C@H](Cc1ccc(I)cc1)C(=O)O; γGlu = O=C(O)[C@H](CCC(=O)[*:2])N[*:1]; 2Nal = N[C@@H](Cc1ccc2ccccc2c1)C(=O)O; d2Nal = N[C@H](Cc1ccc2ccccc2c1)C(=O)O; dIgl = N[C@@H](C(=O)O)C1Cc2ccccc2C1; B4ClF = β-4-chloro-L-phenylalanine; Gly(cPent) = N[C@H](C(=O)O)C1CCCC1; Tridecanoyl = CCCCCCCCCCCCC(=O)*; hArg = N=C(N)NCCCC[C@H](N)C(=O)O; Cha = N[C@@H](CC1CCCCC1)C(=O)O; Aic = NC1(C(=O)O)Cc2ccccc2C1; Nle = CCCC[C@H](N)C(=O)O; Deg = CCC(N)(CC)C(=O)O; AEEA = NCCOCCOCC(=O)O
# T1: human APJ receptor (human, UniProt P35414 1-380)
# T1 sequence (looked up): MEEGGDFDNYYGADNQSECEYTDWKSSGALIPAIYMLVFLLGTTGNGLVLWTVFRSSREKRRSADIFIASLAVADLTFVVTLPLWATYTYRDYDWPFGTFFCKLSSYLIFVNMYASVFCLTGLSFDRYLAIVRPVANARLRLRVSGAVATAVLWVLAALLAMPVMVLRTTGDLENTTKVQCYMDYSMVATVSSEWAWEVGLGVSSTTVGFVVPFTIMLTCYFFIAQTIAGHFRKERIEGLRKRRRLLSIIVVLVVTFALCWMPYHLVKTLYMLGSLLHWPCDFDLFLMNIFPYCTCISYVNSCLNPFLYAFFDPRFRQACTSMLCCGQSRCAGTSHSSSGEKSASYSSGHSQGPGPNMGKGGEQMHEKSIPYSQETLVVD
# T2: rat APJ receptor (rat, UniProt Q9JHG3 1-377)
# T2 sequence (looked up): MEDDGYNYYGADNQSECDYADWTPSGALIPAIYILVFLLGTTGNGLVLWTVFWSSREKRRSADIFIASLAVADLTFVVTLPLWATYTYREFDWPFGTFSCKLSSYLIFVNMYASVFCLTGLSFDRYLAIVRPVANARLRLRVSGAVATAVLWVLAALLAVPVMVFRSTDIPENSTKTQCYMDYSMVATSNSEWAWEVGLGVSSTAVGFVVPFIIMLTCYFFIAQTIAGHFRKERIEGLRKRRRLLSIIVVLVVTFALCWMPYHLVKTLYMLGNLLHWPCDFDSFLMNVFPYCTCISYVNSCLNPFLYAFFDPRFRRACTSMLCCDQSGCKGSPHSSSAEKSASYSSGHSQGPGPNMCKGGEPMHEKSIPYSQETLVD
# B1: Apelin polypeptide SEQ ID NO: 431 (peptide)
# peptide: Tridecanoyl-[γGlu][AEEA][AEEA][dQ][hArg]P[dR][Cha]SHKG[Oic][Nle]P[dIgl]-OH
# SMILES: CCCCCCCCCCCCC(=O)N[C@@H](CCC(=O)NCCOCCOCC(=O)NCCOCCOCC(=O)N[C@H](CCC(N)=O)C(=O)N[C@@H](CCCCNC(=N)N)C(=O)N1CCC[C@H]1C(=O)N[C@H](CCCNC(=N)N)C(=O)N[C@@H](CC1CCCCC1)C(=O)N[C@@H](CO)C(=O)N[C@@H](Cc1c[nH]cn1)C(=O)N[C@@H](CCCCN)C(=O)NCC(=O)N1[C@H](C(=O)N[C@@H](CCCC)C(=O)N2CCC[C@H]2C(=O)N[C@@H](C(=O)O)C2Cc3ccccc3C2)C[C@@H]2CCCC[C@@H]21)C(=O)O
# B2: Apelin polypeptide SEQ ID NO: 407 (peptide)
# peptide: Tridecanoyl-[AC4Abu][AEEA][AEEA][dQ][hArg]P[dR][Cha]SHKG[Oic][Nle]P[d2Nal]-OH
# SMILES: CCCCCCCCCCCCC(=O)NCCC(C(=O)O)C(=O)NCCOCCOCC(=O)NCCOCCOCC(=O)N[C@H](CCC(N)=O)C(=O)N[C@@H](CCCCNC(=N)N)C(=O)N1CCC[C@H]1C(=O)N[C@H](CCCNC(=N)N)C(=O)N[C@@H](CC1CCCCC1)C(=O)N[C@@H](CO)C(=O)N[C@@H](Cc1c[nH]cn1)C(=O)N[C@@H](CCCCN)C(=O)NCC(=O)N1[C@H](C(=O)N[C@@H](CCCC)C(=O)N2CCC[C@H]2C(=O)N[C@H](Cc2ccc3ccccc3c2)C(=O)O)C[C@@H]2CCCC[C@@H]21
# B3: Apelin polypeptide SEQ ID NO: 406 (peptide)
# peptide: Tridecanoyl-[AC4Abu][AEEA][AEEA][dQ][hArg]P[dR][Cha]SHKG[Oic][Nle]P[Gly(cPent)]-OH
# SMILES: CCCCCCCCCCCCC(=O)NCCC(C(=O)O)C(=O)NCCOCCOCC(=O)NCCOCCOCC(=O)N[C@H](CCC(N)=O)C(=O)N[C@@H](CCCCNC(=N)N)C(=O)N1CCC[C@H]1C(=O)N[C@H](CCCNC(=N)N)C(=O)N[C@@H](CC1CCCCC1)C(=O)N[C@@H](CO)C(=O)N[C@@H](Cc1c[nH]cn1)C(=O)N[C@@H](CCCCN)C(=O)NCC(=O)N1[C@H](C(=O)N[C@@H](CCCC)C(=O)N2CCC[C@H]2C(=O)N[C@H](C(=O)O)C2CCCC2)C[C@@H]2CCCC[C@@H]21
# B4: Apelin polypeptide SEQ ID NO: 596 (peptide)
# peptide: Tridecanoyl-[γGlu][AEEA][AEEA][dQ][hArg]P[dR][Cha]SHKG[Oic][Nle][Oic]-OH
# SMILES: CCCCCCCCCCCCC(=O)N[C@@H](CCC(=O)NCCOCCOCC(=O)NCCOCCOCC(=O)N[C@H](CCC(N)=O)C(=O)N[C@@H](CCCCNC(=N)N)C(=O)N1CCC[C@H]1C(=O)N[C@H](CCCNC(=N)N)C(=O)N[C@@H](CC1CCCCC1)C(=O)N[C@@H](CO)C(=O)N[C@@H](Cc1c[nH]cn1)C(=O)N[C@@H](CCCCN)C(=O)NCC(=O)N1[C@H](C(=O)N[C@@H](CCCC)C(=O)N2[C@H](C(=O)O)C[C@@H]3CCCC[C@@H]32)C[C@@H]2CCCC[C@@H]21)C(=O)O
# B5: Apelin polypeptide SEQ ID NO: 434 (peptide)
# peptide: Tridecanoyl-[γGlu][AEEA][AEEA][dQ][hArg]P[dR][Deg]SHKG[Oic][Nle]P[Phe(4-Cl)]-OH
# SMILES: CCCCCCCCCCCCC(=O)N[C@@H](CCC(=O)NCCOCCOCC(=O)NCCOCCOCC(=O)N[C@H](CCC(N)=O)C(=O)N[C@@H](CCCCNC(=N)N)C(=O)N1CCC[C@H]1C(=O)N[C@H](CCCNC(=N)N)C(=O)NC(CC)(CC)C(=O)N[C@@H](CO)C(=O)N[C@@H](Cc1c[nH]cn1)C(=O)N[C@@H](CCCCN)C(=O)NCC(=O)N1[C@H](C(=O)N[C@@H](CCCC)C(=O)N2CCC[C@H]2C(=O)N[C@@H](Cc2ccc(Cl)cc2)C(=O)O)C[C@@H]2CCCC[C@@H]21)C(=O)O
# B6: Apelin polypeptide SEQ ID NO: 453 (peptide)
# peptide: Tridecanoyl-[AC4Abu][AEEA][AEEA][dQ][hArg]P[dR][Cha]SHKG[Oic][Nle][dPhe(4-I)]-OH
# SMILES: CCCCCCCCCCCCC(=O)NCCC(C(=O)O)C(=O)NCCOCCOCC(=O)NCCOCCOCC(=O)N[C@H](CCC(N)=O)C(=O)N[C@@H](CCCCNC(=N)N)C(=O)N1CCC[C@H]1C(=O)N[C@H](CCCNC(=N)N)C(=O)N[C@@H](CC1CCCCC1)C(=O)N[C@@H](CO)C(=O)N[C@@H](Cc1c[nH]cn1)C(=O)N[C@@H](CCCCN)C(=O)NCC(=O)N1[C@H](C(=O)N[C@@H](CCCC)C(=O)N[C@H](Cc2ccc(I)cc2)C(=O)O)C[C@@H]2CCCC[C@@H]21
# B7: Apelin polypeptide SEQ ID NO: 373 (peptide)
# peptide: Tridecanoyl-[γGlu][AEEA][AEEA][dQ][hArg]P[dR][Cha]SYKG[Oic][Nle]P[Phe(4-Cl)]-OH
# SMILES: CCCCCCCCCCCCC(=O)N[C@@H](CCC(=O)NCCOCCOCC(=O)NCCOCCOCC(=O)N[C@H](CCC(N)=O)C(=O)N[C@@H](CCCCNC(=N)N)C(=O)N1CCC[C@H]1C(=O)N[C@H](CCCNC(=N)N)C(=O)N[C@@H](CC1CCCCC1)C(=O)N[C@@H](CO)C(=O)N[C@@H](Cc1ccc(O)cc1)C(=O)N[C@@H](CCCCN)C(=O)NCC(=O)N1[C@H](C(=O)N[C@@H](CCCC)C(=O)N2CCC[C@H]2C(=O)N[C@@H](Cc2ccc(Cl)cc2)C(=O)O)C[C@@H]2CCCC[C@@H]21)C(=O)O
# B8: Apelin polypeptide SEQ ID NO: 595 (peptide)
# peptide: Tridecanoyl-[γGlu][AEEA][AEEA][dQ][hArg]P[dR][Cha]SHKG[Oic][Nle][Aic]-OH
# SMILES: CCCCCCCCCCCCC(=O)N[C@@H](CCC(=O)NCCOCCOCC(=O)NCCOCCOCC(=O)N[C@H](CCC(N)=O)C(=O)N[C@@H](CCCCNC(=N)N)C(=O)N1CCC[C@H]1C(=O)N[C@H](CCCNC(=N)N)C(=O)N[C@@H](CC1CCCCC1)C(=O)N[C@@H](CO)C(=O)N[C@@H](Cc1c[nH]cn1)C(=O)N[C@@H](CCCCN)C(=O)NCC(=O)N1[C@H](C(=O)N[C@@H](CCCC)C(=O)NC2(C(=O)O)Cc3ccccc3C2)C[C@@H]2CCCC[C@@H]21)C(=O)O
# Molecular target: T1, human APJ receptor
# Assay: cell-based or functional assay
row,EC50 Human APJ Receptor (GTPγS assay),Binder
1,31.2 nM,B1
2,124 nM,B2
3,12.9 nM,Tridecanoyl-[γGlu][AEEA][AEEA][dQ][hArg]P[dR][Cha]SHKG[Oic][Nle]P[Bh4ClF]-OH [Apelin polypeptide SEQ ID NO: 370]
4,32.3 nM,Tridecanoyl-[γGlu][AEEA][AEEA][dQ][hArg]P[dR][Cha]SHKG[Oic][Nle]P[2Nal]-OH [Apelin polypeptide SEQ ID NO: 368]
5,33.6 nM,B3
6,11.1 nM,Tridecanoyl-[γGlu][AEEA][AEEA][dQ][hArg]P[dR][Cha]SHKG[Oic][Nle]P[B4ClF]-OH [Apelin polypeptide SEQ ID NO: 432]
7,5.13 nM,B4
8,11 nM,B5
9,19 nM,B6
10,2.81 nM,B7
11,25.9 nM,Tridecanoyl-[γGlu][AEEA][AEEA][dQ][hArg]P[dR][Cha]SHKG[Oic][Nle]P[D‑4IF]-OH [Apelin polypeptide SEQ ID NO: 369]
12,50 nM,B8

# Molecular target: T2, rat APJ receptor
# Assay: cell-based or functional assay
row,EC50 Rat APJ Receptor (GTPγS assay),Binder
1,25 nM,B1
2,216 nM,B2
3,23.7 nM,Tridecanoyl-[γGlu][AEEA][AEEA][dQ][hArg]P[dR][Cha]SHKG[Oic][Nle]P[Bh4ClF]-OH [Apelin polypeptide SEQ ID NO: 370]
4,31.4 nM,Tridecanoyl-[γGlu][AEEA][AEEA][dQ][hArg]P[dR][Cha]SHKG[Oic][Nle]P[2Nal]-OH [Apelin polypeptide SEQ ID NO: 368]
5,73 nM,B3
6,16.2 nM,Tridecanoyl-[γGlu][AEEA][AEEA][dQ][hArg]P[dR][Cha]SHKG[Oic][Nle]P[B4ClF]-OH [Apelin polypeptide SEQ ID NO: 432]
7,33.9 nM,B4
8,11.4 nM,B5
9,20.8 nM,B6
10,3.31 nM,B7
11,42 nM,Tridecanoyl-[γGlu][AEEA][AEEA][dQ][hArg]P[dR][Cha]SHKG[Oic][Nle]P[D‑4IF]-OH [Apelin polypeptide SEQ ID NO: 369]
12,54.8 nM,B8
